From publication PMC4866589

Substrate: Nc1ncnc2c1ncn2[C@@H]1O[C@H](COP(=O)(O)OP(=O)(O)OP(=O)(O)O)[C@@H](O)[C@H]1O
Assay: ATP Km by microfluidic mobility shift kinase assay
Type: biochemical, Homo sapiens
Settings: Mg2+ ([…] MgCl2 in the assay buffer)

B1: hTSSK2 (testis-specific serine/threonine kinase 2) (Homo sapiens) (protein)
chain: MDDATVLRKKGYIVGINLGKGSYAKVKSAYSERLKFNVAVKIIDRKKTPTDFVERFLPREMDILATVNHGSIIKTYEIFETSDGRIYIIMELGVQGDLLEFIKCQGALHEDVARKMFRQLSSAVKYCHDLDIVHRDLKCENLLLDKDFNIKLSDFGFSKRCLRDSNGRIILSKTFCGSAAYAAPEVLQSIPYQPKVYDIWSLGVILYIMVCGSMPYDDSDIRKMLRIQKEHRVDFPRSKNLTCECKDLIYRMLQPDVSQRLHIDEILSHSWLQPPKPKATSSASFKREGEGKYRAECKLDTKTGLRPDHRPDHKLGAKTQHRLLVVPENENRMEDRLAETSRAKDHHISGAEVGKAST
- Km: 2.17 ± 0.04 µM
